According to publication PMC9972320:
pKd: −log10 of the molar value.

Biological target: MSI1 RRM12 (human) (UniProt O43347)
Assay: ITC
Conditions: ITC: 20 mM HEPES pH 7.5, 150 mM NaCl, 3 mM MgCl2, 25 C
[1] = 30 uM RNA in cell, 600 uM protein titrant

MSI1 RRM12 (human), sequence (O43347 20-191): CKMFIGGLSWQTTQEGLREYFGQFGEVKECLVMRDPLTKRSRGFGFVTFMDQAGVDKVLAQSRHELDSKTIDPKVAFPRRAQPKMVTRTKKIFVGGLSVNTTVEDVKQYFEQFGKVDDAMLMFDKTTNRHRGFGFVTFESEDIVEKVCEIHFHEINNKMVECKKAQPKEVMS

Row | Substance | pKd [1] | pKd | also measured
1 | DENV4 3'UTR | 3.47 |  | 
2 | JEV 3'UTR | 3.66 |  | 
3 | MVEV 3'UTR | 3.58 |  | 
4 | USUV 3'UTR | 3.52 |  | 
5 | ZIKV 3'SL |  | 4.18 | 
6 | ZIKV 3'UTR WT |  | 5.60 | 
7 | ZIKV xrRNA1 |  |  | pKd ([…]): 4.02
8 | ZIKV xrRNA2 deltaP4 |  | 5.24 | 
